This note sets out measurements from patent US20230088269A1 (ARGENX BVBA, published 2023).

Assay [1] concerns the target T1, human IL-22R expressed on cells (BW-hIL22R, Baf3-hIL22R/IL20Rb, transfected HEK, primary human skin cells) (human, UniProt Q8N6P7 16-574).
T1 sequence: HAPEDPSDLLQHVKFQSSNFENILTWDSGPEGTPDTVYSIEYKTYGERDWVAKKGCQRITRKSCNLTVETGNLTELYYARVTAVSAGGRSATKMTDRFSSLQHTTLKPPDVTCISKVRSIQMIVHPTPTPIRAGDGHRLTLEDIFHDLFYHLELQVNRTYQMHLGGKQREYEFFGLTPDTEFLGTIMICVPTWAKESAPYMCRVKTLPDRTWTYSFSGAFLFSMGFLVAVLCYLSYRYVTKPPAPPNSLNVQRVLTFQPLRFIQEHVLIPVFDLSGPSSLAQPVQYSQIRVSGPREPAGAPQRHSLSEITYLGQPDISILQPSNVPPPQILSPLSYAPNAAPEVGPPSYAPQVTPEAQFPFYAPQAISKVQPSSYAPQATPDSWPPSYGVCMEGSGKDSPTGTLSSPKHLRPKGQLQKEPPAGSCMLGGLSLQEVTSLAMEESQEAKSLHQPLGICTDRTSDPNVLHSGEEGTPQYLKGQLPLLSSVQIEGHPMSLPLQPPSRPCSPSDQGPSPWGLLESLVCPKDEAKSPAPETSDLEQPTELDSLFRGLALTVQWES
Kind of assay: cell-based or functional assay.

Assay [2] concerns the target T2, cynomolgus monkey IL-22R in ex vivo skin biopsies (cynomolgus monkey, UniProt A0A2K5TKX9 16-573).
T2 sequence: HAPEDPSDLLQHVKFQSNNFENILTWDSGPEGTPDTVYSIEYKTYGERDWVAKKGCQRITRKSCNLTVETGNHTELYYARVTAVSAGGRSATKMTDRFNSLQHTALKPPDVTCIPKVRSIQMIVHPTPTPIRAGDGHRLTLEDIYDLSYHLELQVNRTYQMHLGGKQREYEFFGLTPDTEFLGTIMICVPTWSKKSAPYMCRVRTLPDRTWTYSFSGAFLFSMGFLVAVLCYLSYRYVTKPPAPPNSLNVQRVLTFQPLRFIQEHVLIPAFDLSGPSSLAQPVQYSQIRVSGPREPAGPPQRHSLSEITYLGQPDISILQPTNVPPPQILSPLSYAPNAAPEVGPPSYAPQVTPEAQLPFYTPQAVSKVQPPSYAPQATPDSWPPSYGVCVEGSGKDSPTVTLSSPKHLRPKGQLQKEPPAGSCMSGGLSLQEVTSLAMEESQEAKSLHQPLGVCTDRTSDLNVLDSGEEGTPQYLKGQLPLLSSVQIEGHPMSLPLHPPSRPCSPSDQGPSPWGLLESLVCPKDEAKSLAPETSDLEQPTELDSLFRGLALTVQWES
Kind of assay: cell-based or functional assay.

For assay [3], the target named is T1, human IL-22R expressed on cells …. Kind of assay: cell-based or functional assay. The source holds these as a separate data set.
Assay [4] has the same target. Kind of assay: cell-based or functional assay. This is another data set of the same source.
Assay [5] addresses T3, recombinant human IL-22R (R&D Systems / Biotechne 2770-LR) (human, UniProt Q8N6P7 16-228).
T3 construct: Bought soluble recombinant protein (said to be 25 kDa); also called hIL22R; IL-22R1
T3 sequence: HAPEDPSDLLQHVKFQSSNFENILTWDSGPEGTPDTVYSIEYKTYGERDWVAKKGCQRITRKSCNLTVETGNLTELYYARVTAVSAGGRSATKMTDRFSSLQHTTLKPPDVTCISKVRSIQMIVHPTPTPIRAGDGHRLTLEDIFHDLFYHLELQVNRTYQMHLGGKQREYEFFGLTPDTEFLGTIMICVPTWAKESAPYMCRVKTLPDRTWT
Kind of assay: SPR (Biacore), mAb on chip, monomeric hIL22R injected, 1:1 Langmuir. As for the experimental part: Because of the potential avidity effect observed when a bivalent molecule is used as a ligand during affinity measurement, a reverse experimental setup was tested. In this set-up, the antibodies were coated to 250RU using standard methods. Monomeric human IL22R was added at different concentrations, and the affinities calculated using the BIAevaluation software using a Langmuir 1:1 fitting are shown in Table 21 below.

Assay [6] has as its target T3, recombinant human IL-22R (R&D Systems / …). Kind of assay: SPR (Biacore), hIL22R on CM5 chip, mAb injected, 1:1 Langmuir. As for the experimental part: (§1) The affinity of the 230C9 and 223G5 antibodies was measured using SPR ([…]). In brief, 250RU of human IL22R (Biotechne, 2770-LR) was coated onto a CM5 chip using standard methods (EDC coupling of IL22R at a concentration of 2 μg/ml in acetate buffer pH4.5). Then various concentrations of antibody were injected in HBSEP+ buffer (pH 7.4) for 2 minutes. The binding was monitored also during a 10 min washing (HBSEP+).
For orientation: SPR reads the build-up and loss of mass on a sensor chip optically.

Assay [7] deals with T1, human IL-22R expressed on cells …. Kind of assay: cell-based or functional assay. The source holds these as a separate data set.
Assay [8] has as its target cynoIL22R_ECD-humanTM_humanICD chimera on transfected cells (cynomolgus monkey; human, UniProt Q8N6P7 229-574). The assay is described as follows: cell-based or functional assay.
Assay [9] has as its target rhesus IL22R ECD - human TM - human ICD chimera on transfected HEK cells (rhesus monkey; human, UniProt Q8N6P7 229-574). Kind of assay: cell-based or functional assay.
Assay [10] addresses T4, rhIL22R-Fc (rhesus IL22R ECD fused to human Fc) (rhesus monkey, UniProt G7MHN4 16-228).
T4 construct: also called rhesus IL-22R1
T4 sequence: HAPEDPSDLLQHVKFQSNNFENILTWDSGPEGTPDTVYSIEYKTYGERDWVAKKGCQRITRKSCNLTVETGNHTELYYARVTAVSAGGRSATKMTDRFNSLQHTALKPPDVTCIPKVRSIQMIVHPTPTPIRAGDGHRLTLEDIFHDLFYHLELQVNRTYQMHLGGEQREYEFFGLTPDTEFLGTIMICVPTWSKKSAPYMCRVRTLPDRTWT
Kind of assay: off-rate of Fab fragment; method not stated.

In assay [11] the target is T5, recombinant mouse IL22R (monomeric, R&D Systems cat 4248-MR) (mouse, UniProt Q80XZ4 16-230).
T5 construct: extracellular domain; also called murine IL-22R; mIL22R
T5 sequence (looked up): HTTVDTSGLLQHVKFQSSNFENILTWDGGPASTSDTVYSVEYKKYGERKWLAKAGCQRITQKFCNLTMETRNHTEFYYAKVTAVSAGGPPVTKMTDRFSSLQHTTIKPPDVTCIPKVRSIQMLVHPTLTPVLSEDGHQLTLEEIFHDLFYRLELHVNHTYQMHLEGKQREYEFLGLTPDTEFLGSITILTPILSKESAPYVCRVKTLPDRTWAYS
The assay is described as follows: SPR (Biacore), purified Fab.

Assay [12] addresses T3, recombinant human IL-22R (R&D Systems / …). Kind of assay: SPR (Biacore), purified Fab.
For assay [13] the target is unchanged. The assay is described as follows: off-rate of Fab fragment; method not stated; Fab fragment; human IL-22R1.
The target of assay [14] is T6, human IL-22R A209D mutant on BW cells (human, UniProt Q8N6P7 16-574).
T6 sequence: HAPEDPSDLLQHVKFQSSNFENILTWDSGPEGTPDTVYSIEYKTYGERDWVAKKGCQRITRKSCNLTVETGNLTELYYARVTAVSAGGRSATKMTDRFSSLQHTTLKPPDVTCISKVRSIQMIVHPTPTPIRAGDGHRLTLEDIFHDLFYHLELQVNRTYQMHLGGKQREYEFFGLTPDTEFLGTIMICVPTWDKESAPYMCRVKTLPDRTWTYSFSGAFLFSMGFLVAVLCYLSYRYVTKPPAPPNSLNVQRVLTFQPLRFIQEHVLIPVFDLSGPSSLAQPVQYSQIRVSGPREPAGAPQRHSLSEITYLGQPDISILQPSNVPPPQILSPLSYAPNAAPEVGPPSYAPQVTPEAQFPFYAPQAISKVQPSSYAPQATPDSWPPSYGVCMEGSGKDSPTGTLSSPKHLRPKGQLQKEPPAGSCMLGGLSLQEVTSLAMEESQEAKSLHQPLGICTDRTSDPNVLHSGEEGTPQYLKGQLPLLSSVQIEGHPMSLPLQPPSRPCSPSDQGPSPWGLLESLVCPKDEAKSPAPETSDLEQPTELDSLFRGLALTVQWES
The assay is described as follows: FACS, BW-hIL-22R mutant cells. As for the experimental part:
The binding of IL22R antibodies and of the benchmark antibody (280.346.TSY) to BW cells over-expressing various IL22R mutants was tested. The IL22R mutants have mutations of amino acids known to be involved in the IL-22/IL22R interaction. In this setup, the antibodies were biotinylated, added to the cells and binding of the antibody to IL22R was detected with labeled streptavidin by Flow cytometry (FACS).
FACS analysis was also carried out as described in Example 8.2 to study the binding of the germlined antibodies to various IL-22R mutants.

In assay [15] the target is T3, recombinant human IL-22R (R&D Systems / …). Kind of assay: SPR (Biacore), hIL22R on CM5 chip, mAb injected; rounded range told of 223G5 and 224C4. The method, then: as §1

B1: 230C9 mAb (antibody, human IgG1, lambda, N297Q, V domains shown)
VH: QVQLVESGGGLVQPGGSLRLSCAASGFTFSSYDMNWVRQAPGKGLEWVSSIYNDASNTAYSDSVKGRFTISRDNSKNTLYLQMNSLRAEDTAVYYCAKVGFSGTYYSESWGQGTLVTVSS
VL: SYELTQPSSVSVALGQTARITCQGGYYAHWYQQKPGQAPVLVIYGQNNRPSGIPERFSGSGAGNTATLTISRAQAEDEADYYCQSGSSSSNAVFGGGTKLTVLG
notes: Germlined variant of 218A7; also called 230C9-N297Q; 230C9 N297Q
Consider B1, for which, in assay [1], the “IC50 blocking IL-20 (nM), Baf3hIL22R/IL20Rb cell line; batch #1” value came to 0.781 nM; the “IC50 blocking IL-20 (nM), Baf3hIL22R/IL20Rb cell line; batch #2” value was 0.567 nM; the “Relative potency to 280.346.TSY (IL-20); batch #1” value worked out at 1.9 fold; the “Relative potency to 280.346.TSY (IL-20); batch #2” value came out at 2.6 fold. For the same molecule, the “EC50, block of rhIL-22 down-regulation of FLG2 and LOR mRNA in cynomolgus skin biopsies” value in assay [2] worked out at 11 nM. Also, in [3], the “EC50, inhibition of CCL2 levels in primary human keratinocytes stimulated with IL-4, IL-13, IL-22 and IFN-gamma” value stood at 0.1 nM; the “EC50, reduction of rhIL-22 induced DEFB4 mRNA in human ex vivo skin explants” value turned out to be 4 nM. For the same molecule, in [4], the “IC50 blocking IL-22 (nM), BWhIL22R cell line” value worked out at 0.56 nM and the “Relative potency to 280.346.TSY (IL-22, BWhIL22R cell line)” value came to 1.2 fold. Also, in [5], the dissociation constant Kd was 0.22 nM, the koff amounted to 0.00022 s⁻¹ and the on-rate constant (kon) came to 920000 M⁻¹ s⁻¹. Also, in [6], the Kd amounted to 0.13 nM, the koff was determined as 8.9e-05 s⁻¹ and the kon came to 680000 M⁻¹ s⁻¹. In addition, the “EC50 (nM), STAT3-reporter in HEK cells after human IL22, Human ECD” value in assay [7] was 0.28 nM. In addition, in assay [8], the “EC50 (nM), STAT3-reporter in HEK cells after human IL22, Cyno ECD” value came out at 0.57 nM. The “EC50 (nM), STAT3-reporter in HEK cells after human IL22, Rhesus ECD” value in assay [9] worked out at 0.48 nM.

B2: 166G8 Fab (Fab, V domains shown)
VH: QVQLVESGGGLVQPGDSLRLSCAASGFTFGSYFMSWVRQAPGKGPEWVSGIHISGGITYYLDSVKGRFTISRDNAKNTLYLQMNNLKPEDTAVYYCVTPPGPFKAHYNGMKYWGKGTLVTVSS
VL: NFMLTQPPSVSGTLGKTVTISCTGTSRDIGDYNYVSWYQQLPGLAPKLLIYKVNTRSSGTPDRFSGSKSGNTASLTISGLQSEDEADYYCASYRLYADYVFGGGTHLTVL
notes: VH family 5; purified llama Fab
Take B2: the off-rate constant (koff) is 0.0222 s⁻¹ in assay [10], 0.00088 s⁻¹ in assay [12] and 0.00122 s⁻¹ in [13]. The binding result in assay [11] was “no binding”.

B3: 223G5 mAb (antibody, human IgG1, lambda, N297Q, V domains shown)
VH: QVQLVESGGGLVQPGGSLRLSCAASGFTFSSYFMSWVRQAPGKGPEWVSGIHISGGITYYTDSVKGRFTISRDNAKNTLYLQMNSLRAEDTAVYYCVTPPGPFKAHYNGAKYWGKGTLVTVSS
VL: QSALTQPPSVSGSPGQSVTISCTGTSSDIGSYNYVSWYQQLPGKAPKLLIYEVNKRSSGVPDRFSGSKSGNTASLTISGLQAEDEADYYCASYRLYADYVFGGGTQLTVLG
notes: Germlined variant of 166G8; also called 223G5-N297Q
As for B3, the binding result in [14] was “no binding”. In [6], the Kd was 0.016 nM, the koff was 0.0001 s⁻¹ and the kon turned out to be 6.6e+06 M⁻¹ s⁻¹. Also, the equilibrium dissociation constant (Kd) in [15] lay within 0.01 to 0.02 nM.

The Kd is a measure of binding affinity in units of concentration. As a reminder, the koff is the rate constant with which the complex falls apart. As a reminder, the kon is the rate constant with which the complex forms.
